Broadly, the Kd is the free concentration of one partner at which half of the binding sites on the other are occupied at equilibrium, for simple one-to-one binding.

Read-outs that look alike come from different tables or passages of the source.

One molecule from paper PMC11334715 (Science immunology, 2024) can be followed below.

Assay [1] deals with T1, murine LRIG1.ECD.His recombinant protein (mouse, UniProt P70193 35-796).
T1 sequence (looked up): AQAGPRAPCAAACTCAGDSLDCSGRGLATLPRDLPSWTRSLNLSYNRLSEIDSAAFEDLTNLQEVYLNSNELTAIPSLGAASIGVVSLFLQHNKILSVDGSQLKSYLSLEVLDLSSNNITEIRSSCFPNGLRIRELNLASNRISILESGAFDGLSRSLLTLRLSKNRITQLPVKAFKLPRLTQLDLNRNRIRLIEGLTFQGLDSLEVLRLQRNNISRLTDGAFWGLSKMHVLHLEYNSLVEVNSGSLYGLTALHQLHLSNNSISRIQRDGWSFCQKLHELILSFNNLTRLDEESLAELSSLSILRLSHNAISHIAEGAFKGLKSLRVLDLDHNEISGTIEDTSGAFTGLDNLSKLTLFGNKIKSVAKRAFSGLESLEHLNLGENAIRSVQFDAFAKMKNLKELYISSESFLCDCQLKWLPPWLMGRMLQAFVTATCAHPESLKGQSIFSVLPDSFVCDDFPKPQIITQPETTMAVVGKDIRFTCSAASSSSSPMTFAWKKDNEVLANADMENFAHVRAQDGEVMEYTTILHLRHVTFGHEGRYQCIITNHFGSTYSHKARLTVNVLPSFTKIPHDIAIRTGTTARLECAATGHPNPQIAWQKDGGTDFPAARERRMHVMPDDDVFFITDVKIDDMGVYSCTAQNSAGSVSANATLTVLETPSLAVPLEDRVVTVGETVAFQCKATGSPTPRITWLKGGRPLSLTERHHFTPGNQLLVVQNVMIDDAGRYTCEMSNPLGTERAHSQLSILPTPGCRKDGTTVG
Kind of assay: SPR. Background: Surface plasmon resonance follows binding to a sensor surface in real time, without labels.

Assay [2] has as its target T1, murine LRIG1.ECD.His recombinant protein. Kind of assay: SPR. This is another data set of the same source.

B1: murine VISTA.Fc recombinant protein (VISTA.ECD) (Fc fusion, UniProt Q9D659 33-191, looked up)
chain: FKVTTPYSLYVCPEGQNATLTCRILGPVSKGHDVTIYKTWYLSSRGEVQMCKEHRPIRNFTLQHLQHHGSHLKANASHDQPQKHGLELASDHHGNFSITLRNVTPRDSGLYCCLVIELKNHHPEQRFYGSMELQVQAGKGSGSTCMASNEQDSDSITAA
With B1, the Kd is 1.2 nM in assay [1] and 3.44 nM in assay [2].
